Test results taken from article PMC3816256, “Sgol2 provides a regulatory platform that coordinates essential cell cycle processes during meiosis I in oocytes” (eLife, 2013).
Numbering of substitutions follows the chain as printed. Names may count otherwise.

B1: MBP-Sgol2cc-Flag, wild type (mouse Sgol2 coiled coil region 31-117) (domain or fragment, UniProt Q7TSY8 31-117, looked up)
chain: SLASKIKAKILNNSSIFKISLKHNNRALARALSKEKENSRRITTEKMQLQKEVEKLNFENTFLRLKLNTLNKKLVEIESHVSNDLLT
notes: In the dimerization assays the second copy (bait) carried a His tag in place of Flag (MBP-Sgol2cc-His, pET28b backbone; Flag copy in pMAL-c2x); also called MBP-mSgol2cc-Flag; MBP-Sgol2cc-His; source: also His- and Flag-tagged copies co-expressed, in extract; not shown: MBP, N-terminal, kept; Flag, C-terminal, kept
B2: MBP-Sgol2cc-Flag L51A (domain or fragment, mouse, UniProt Q7TSY8 31-117, looked up)
chain: B1 chain with L21A
notes: In the dimerization assay the second copy (bait) carried a His tag in place of Flag and the same substitution; not shown: MBP, N-terminal, kept; Flag, C-terminal, kept
B3: MBP-Sgol2cc-Flag E82K (domain or fragment, mouse, UniProt Q7TSY8 31-117, looked up)
chain: B1 chain with E52K
notes: as for B2
B4: MBP-Sgol2cc-Flag R56A (domain or fragment, mouse, UniProt Q7TSY8 31-117, looked up)
chain: B1 chain with R26A
notes: as for B2
B5: MBP-Sgol2cc-Flag E82A (domain or fragment, mouse, UniProt Q7TSY8 31-117, looked up)
chain: B1 chain with E52A
notes: as for B2
B6: MBP-Sgol2cc-Flag N54A (domain or fragment, mouse, UniProt Q7TSY8 31-117, looked up)
chain: B1 chain with N24A
notes: as for B2
B7: MBP-Sgol2cc-Flag N55I (domain or fragment, mouse, UniProt Q7TSY8 31-117, looked up)
chain: B1 chain with N25I
notes: as for B2
B8: MBP-Sgol2cc-Flag L51A/N54A/R56A (3A) (domain or fragment, mouse, UniProt Q7TSY8 31-117, looked up)
chain: B1 chain with L21A, N24A, R26A
notes: In the dimerization assays the second copy (bait) carried a His tag in place of Flag and the same substitutions; also called 3A triple mutation; 3A mutant; source: also His- and Flag-tagged copies co-expressed, in extract; not shown: MBP, N-terminal, kept; Flag, C-terminal, kept

Biological target: the molecule itself
Assay: pull-down; purified Flag-tagged MBP-Sgol2cc (31-117) pulled down by purified His-tagged MBP-Sgol2cc (31-117) with the same substitution; western blots

Binding result, binds:
B1, B2, B3, B4, B5, B6, B7

Biological target: the molecule itself
Assay: pull-down; MBP-Sgol2cc-His and MBP-Sgol2cc-Flag co-expressed in E. coli; 10 mg of extract on Talon beads 2 hr at 4°C (50 mM sodium phosphate pH 7, 250 mM NaCl, 10% glycerol, 0.02% Triton X-100), washes with 23 mM imidazole; blots with anti-Flag and anti-His; the paper calls it co-immunoprecipitation

Binding result, binds:
B8
